# Measured values from US20200062856A1 (XDCEXPLORER SHANGHAI, published 2020).
# Like-named read-outs stand apart in the source and are kept apart here.
# T1: human TPBG protein, full-length, on the cell surface (human, UniProt Q13641 32-420)
# T1 sequence (looked up): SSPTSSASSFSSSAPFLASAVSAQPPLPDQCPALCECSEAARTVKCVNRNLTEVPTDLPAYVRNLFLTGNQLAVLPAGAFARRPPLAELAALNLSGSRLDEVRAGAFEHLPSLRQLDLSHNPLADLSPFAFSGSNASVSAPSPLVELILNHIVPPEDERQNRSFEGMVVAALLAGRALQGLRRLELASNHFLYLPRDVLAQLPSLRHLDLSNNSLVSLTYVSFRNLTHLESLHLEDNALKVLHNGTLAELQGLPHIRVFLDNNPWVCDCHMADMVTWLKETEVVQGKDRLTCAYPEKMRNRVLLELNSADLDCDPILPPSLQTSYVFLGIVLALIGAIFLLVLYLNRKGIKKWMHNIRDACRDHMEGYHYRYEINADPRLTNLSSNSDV
# T2: human TPBG antigen immobilized on a CM5 chip (human, UniProt Q13641 32-355, limits assumed)
# T2 sequence (looked up): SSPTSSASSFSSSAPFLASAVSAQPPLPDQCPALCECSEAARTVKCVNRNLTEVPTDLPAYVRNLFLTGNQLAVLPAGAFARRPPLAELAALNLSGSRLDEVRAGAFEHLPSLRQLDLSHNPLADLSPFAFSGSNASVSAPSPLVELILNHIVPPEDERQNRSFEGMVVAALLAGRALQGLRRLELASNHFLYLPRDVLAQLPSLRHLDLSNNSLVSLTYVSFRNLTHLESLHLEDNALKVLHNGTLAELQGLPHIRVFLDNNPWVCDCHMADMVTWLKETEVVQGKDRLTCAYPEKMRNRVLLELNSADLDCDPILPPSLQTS
# T3: human TPBG-hFc protein (human, UniProt Q13641 32-355)
# T3 construct: range 32-355; Expressed in HEK293 cells, purified on protein A; also called immunogen A; hFc tagged TPBG protein; not shown: human IgG Fc fragment of the pCpC vector
# T3 sequence (looked up): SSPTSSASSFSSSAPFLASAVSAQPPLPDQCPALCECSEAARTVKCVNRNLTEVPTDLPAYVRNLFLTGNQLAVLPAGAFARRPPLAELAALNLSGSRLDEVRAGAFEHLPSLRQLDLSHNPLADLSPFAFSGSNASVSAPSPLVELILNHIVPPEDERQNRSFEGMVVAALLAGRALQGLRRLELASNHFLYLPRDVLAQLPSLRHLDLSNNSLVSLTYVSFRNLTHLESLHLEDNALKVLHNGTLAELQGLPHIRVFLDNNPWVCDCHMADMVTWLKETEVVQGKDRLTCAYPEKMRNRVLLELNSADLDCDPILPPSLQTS
# Assays:
# [1] = molecular target: T1, human TPBG protein, full-length, on the …; assay: cell-based or functional assay
# [2] = molecular target: T2, human TPBG antigen immobilized on a CM5 …; assay: SPR (Biacore), human TPBG antigen immobilized on CM5 chip
# Protocol: To assess the binding specificity and affinity of the humanized anti-TPBG antibody, Biacore analysis was performed using human TPBG antigen immobilized on a CM5 chip. Biacore technique utilizes the change in the refractive index of surface layer after antibody binding to the TPBG antigen immobilized on the surface layer. The binding was determined by surface plasmon resonance (SPR) through detecting the laser refracted from the surface. Non-specific and specific interactions were distinguished by analysis of signal kinetics binding rate and dissociation rate. Chimeric antibodies 12B12 and 28D4 were used as controls.
# human TPBG-hFc protein = molecular target: T3, human TPBG-hFc protein; assay: ELISA, coated human TPBG-hFc
# Protocol: The purified human TPBG-hFc obtained from step (1) diluting with PBS to a final concentration of 1.0 μg/mL was aliquoted into a 96-well ELISA plate at 100 μL per well, and sealed with a parafilm and incubated at 4° C. overnight. The plate was washed twice with plate washing buffer (PBS containing 0.01% (v/v) Tween 20), and blocked with blocking buffer (PBS containing 0.01% (v/v) Tween 20 and 1% (w/w) BSA) at room temperature for 2 h. The blocking buffer was discarded, and […] per well of the purified antibody TPBG was added. After incubating at 37° C. for 2 h, the plate was washed for three times with plate washing buffer (PBS containing 0.01% (v/v) Tween 20). HRP (horseradish peroxidase)-labeled secondary antibody (purchased from Sigma) was added and incubated at 37° C. for 2 h, and the plate was washed for three times using plate washing buffer (PBS containing 0.01% (v/v) Tween 20). 100 μL of TMB substrate was aliquoted into each well, incubated at room temperature for 30 min, and 100 μL of stop buffer (1.0 N HCl) per well was subsequently added. A_{450 nm} values were read using the ELISA plate reader (SpectraMax 384plus purchased from Molecular Device), and the results were shown in Table 5. […] In Table 5 the IgG control herein is a mice IgG control, the data in the Table are OD_{450 nm} values, and Blank represents the OD_{450 nm} value of PBS buffer in the plate.
# The purified humanized TPBG antibody obtained from Embodiment 1 was reacted with human TPBG-hFc, for the method, see (5) Identification of lead antibody in Embodiment 1. The EC50 in Table 11 and Table 12 are calculated according to the OD450 nm value of the h12B12 variants and the h28D4 variants, respectively. […] FIGS. 7A and 7B are the binding reactions of purified humanized h12B12 variants to human TBPG-hFc protein, and FIGS. 8A and 8B are the binding reactions of the purified humanized h28D4 variants to human TBPG-hFc protein.
# [3] = molecular target: T1, human TPBG protein, full-length, on the …; assay: cell-based or functional assay; remark: listed apart in the source
Kd [2],koff [2],kon [2],EC50 (human TPBG-hFc protein),Binder,"IC50 of cell killing, NCI-H1568 cells (CellTiter-Glo, 5 days) [3]",other results
–,–,–,–,"Humanized Antibody 12B12-12-MMAE (antibody, V domains shown, MC-VC-PAB-MMAE on cysteines reduced with TCEP (sites not given), DAR about 3.0-5.0 per antibody) VH: EVQLVESGGGLVQPGGSLRLSCAASGFTFSNFGMHWVRQAPGKGLEWVSYISSGSTSFYYADTVKGRFTISRDNAKNSLYLQMNSLRDEDTAVYYCARTNSLLRGFFDAWGQGTTVTVSS VL: DIVLTQTPLSLSVTPGQPASISCRASQSVSSSSYTYLHWYLQKPGQPPQLLIKSASNLESGVPDRFSGSGSGTDFTLKISRVEAEDVGVYYCQHSWEIPLTFGQGTKLEIK",–,"IC50 of cell killing, MDA-MB-468 cells (CellTiter-Glo, 5 days) [1]: 0.27 nM; IC50 of cell killing, NCI-H1568 cells (CellTiter-Glo, 5 days) [1]: 0.43 nM; IC50 of cell killing, NCI-H1975 cells (CellTiter-Glo, 5 days) [1]: 1.2 nM"
0.022 nM,3.46e-05 s⁻¹,1.58e+06 M⁻¹ s⁻¹,0.227 nM,"Humanized antibody 12B12-4 (antibody, V domains shown, also called h12B12-4) VH: EVQLVESGGGLVQPGGSLRLSCAASGFTFSNFGMHWVRQAPGKGLEWVSYISSGSTSFYYADTVKGRFTISRDNAKNSLYLQMNSLRDEDTAVYYCARTNSLLRGFFDAWGQGTTVTVSS VL: DIVLTQSPDSLAVSLGERATINCRASQSVSSSSYTYLHWYQQKPGQPPKLLIKSASNLESGVPDRFSGSGSGTDFTLTISSLQAEDVAVYYCQHSWEIPLTFGQGTKLEIK",–,–
–,–,–,–,"Humanized Antibody 12B12-12-DM1 (antibody, V domains shown, SMCC-DM1 (sites not given), DAR about 3.0-5.0 per antibody) VH: EVQLVESGGGLVQPGGSLRLSCAASGFTFSNFGMHWVRQAPGKGLEWVSYISSGSTSFYYADTVKGRFTISRDNAKNSLYLQMNSLRDEDTAVYYCARTNSLLRGFFDAWGQGTTVTVSS VL: DIVLTQTPLSLSVTPGQPASISCRASQSVSSSSYTYLHWYLQKPGQPPQLLIKSASNLESGVPDRFSGSGSGTDFTLKISRVEAEDVGVYYCQHSWEIPLTFGQGTKLEIK",–,"IC50 of cell killing, MDA-MB-468 cells (CellTiter-Glo, 5 days) [1]: 0.44 nM; IC50 of cell killing, NCI-H1568 cells (CellTiter-Glo, 5 days) [1]: 0.38 nM; IC50 of cell killing, NCI-H1975 cells (CellTiter-Glo, 5 days) [1]: 5.93 nM"
0.0229 nM,3.65e-05 s⁻¹,1.59e+06 M⁻¹ s⁻¹,0.2 nM,"Humanized antibody 12B12-16 (antibody, V domains shown, also called h12B12-16) VH: EVQLVESGGGVVQPGRSLRLSCAASGFTFSNFGMHWVRQAPGKGLEWVAYISSGSTSFYYADTVKGRFTISRDNSKNTLYLQMNSLRAEDTAVYYCSRTNSLLRGFFDAWGQGTTVTVSS VL: DIVLTQTPLSLSVTPGQPASISCRASQSVSSSSYTYLHWYLQKPGQPPQLLIKSASNLESGVPDRFSGSGSGTDFTLKISRVEAEDVGVYYCQHSWEIPLTFGQGTKLEIK",–,–
0.0179 nM,2.1e-05 s⁻¹,1.17e+06 M⁻¹ s⁻¹,0.253 nM,"Humanized antibody 12B12-5 (antibody, V domains shown, also called h12B12-5) VH: EVQLVESGGGLVQPGGSLRLSCAASGFTFSNFGMHWVRQAPGKGLEWVSYISSGSTSFYYADTVKGRFTISRDNAKNSLYLQMNSLRDEDTAVYYCSRTNSLLRGFFDAWGQGTTVTVSS VL: DIVLTQSPDSLAVSLGERATINCRASQSVSSSSYTYLHWYQQKPGQPPKLLIKSASNLESGVPDRFSGSGSGTDFTLTISSLQAEDVAVYYCQHSWEIPLTFGQGTKLEIK",–,–
–,–,–,–,"Humanized Antibody 28D4-3-MMAF (antibody, V domains shown, MC-MMAF on cysteines reduced with TCEP (sites not given), DAR 3.0-5.0 per antibody) VH: EVQLVESGGGLVKPGGSLRLSCAASGFTFSNYVMSWIRQAPGKGLEWVAEISTGGSHTYYSDTVTGRFTISRDNAKKSLYLQMNSLRAEDTAVYYCIMFYYGSSYSMDYWGQGTTVTVSS VL: DIQMTQSPSSLSASVGDRVTITCRASQDIRNYLNWYQQKPGKAPKLLIYHTSRLHSGVPSRFSGSGSGTDFTFTISSLQPEDIATYYCQQGDTLPLTFGQGTRLEIK",0.061 nM,–
–,–,–,–,"Humanized Antibody 28D4-7-MMAF (antibody, V domains shown, MC-MMAF on cysteines reduced with TCEP (sites not given), DAR 3.0-5.0 per antibody) VH: EVQLVESGGGLVKPGGSLRLSCAASGFTFSNYVMSWIRQAPGKGLEWVAEISTGGSHTYYSDTVTGRFTISRDNAKKSLYLQMNSLRAEDTAVYYCIMFYYGSSYSMDYWGQGTTVTVSS VL: DIQMTQSPSSLSASVGDRVTITCRASQDIRNYLNWYQQKPGKAPKLLIYHTSRLHSGVPSRFSGSGSGTDYTFTISSLQPEDIATYYCQQGDTLPLTFGQGTRLEIK",0.066 nM,–
0.0296 nM,3.01e-05 s⁻¹,1.02e+06 M⁻¹ s⁻¹,0.162 nM,"Humanized antibody 28D4-8 (antibody, V domains shown, also called h28D4-8) VH: EVQLVESGGGLVKPGGSLRLSCAASGFTFSNYVMSWARQAPGKRLEWVAEISTGGSHTYYSDTVTGRFTISRDNAKKSLYLQMNSLRAEDTAVYYCIMFYYGSSYSMDYWGQGTTVTVSS VL: DIQMTQSPSSLSASVGDRVTITCRASQDIRNYLNWYQQKPGKAPKLLIYHTSRLHSGVPSRFSGSGSGTDYTFTISSLQPEDIATYYCQQGDTLPLTFGQGTRLEIK",–,–
–,–,–,–,"Humanized Antibody 28D4-4-MMAF (antibody, V domains shown, MC-MMAF on cysteines reduced with TCEP (sites not given), DAR 3.0-5.0 per antibody) VH: EVQLVESGGGLVKPGGSLRLSCAASGFTFSNYVMSWARQAPGKRLEWVAEISTGGSHTYYSDTVTGRFTISRDNAKKSLYLQMNSLRAEDTAVYYCIMFYYGSSYSMDYWGQGTTVTVSS VL: DIQMTQSPSSLSASVGDRVTITCRASQDIRNYLNWYQQKPGKAPKLLIYHTSRLHSGVPSRFSGSGSGTDFTFTISSLQPEDIATYYCQQGDTLPLTFGQGTRLEIK",0.074 nM,–
0.0381 nM,3.94e-05 s⁻¹,1.03e+06 M⁻¹ s⁻¹,0.167 nM,"Humanized antibody 28D4-12 (antibody, V domains shown, also called h28D4-12) VH: EVQLVESGGGLVKPGGSLRLSCAASGFTFSNYVMSWARQAPGKRLEWVAEISTGGSHTYYSDTVTGRFTISRDNAKKSLYLQMNSLRAEDTAVYYCIMFYYGSSYSMDYWGQGTTVTVSS VL: DIQMTQSPSSLSASVGDRVTITCRASQDIRNYLNWYQQKPGKTVKLLIYHTSRLHSGVPSRFSGSGSGTDYTFTISSLQPEDIATYFCQQGDTLPLTFGQGTRLEIK",–,–
–,–,–,–,"Chimeric Antibody 28D4-MMAF (antibody, V domains shown, MC-MMAF on cysteines reduced with TCEP (sites not given), DAR 3.0-5.0 per antibody) VH: DVQLVESGGGLVRPGGSLKLSCAASGFTFSNYVMSWARQSPEKRLEWVAEISTGGSHTYYSDTVTGRFTISRDNAKKALYLEMSSLRSEDTAIYYCIMFYYGSSYSMDYWGQGTSVTVSS VL: DIQMTQSTSSLSASLGDRITISCRASQDIRNYLNWYQQKPDGTVKLLIYHTSRLHSGVPSRFSGSGSGTDYSLTISNLEQEDIATYFCQQGDTLPLTFGAGTRLELK",0.091 nM,–
